Results: patent publication US20170348438A1 (CASE WESTERN RESERVE UNIVERSITY, published 2017)
Positions of bridges follow the written chain, without caps; N, C: chain ends. Primed or numbered codes have the meaning given here. No end group written: not given here. PEG3′ = not defined here

B1: M13 phage displaying MTP6 (ACNSVHQHHC) (peptide)
peptide: ACNSVHQHHC
modifications: disulfide 2-10 (inferred); also: displayed on M13 phage coat protein fusion
notes: Tested as whole phage in the ELISA; cyclic library; not shown: rest of the M13 coat protein fusion of the Ph.D.-C7C library (New England Biolabs); not described
B2: M13 phage displaying MTP4 (ACKAPAHHHC) (peptide)
peptide: ACKAPAHHHC
modifications: disulfide 2-10 (inferred); also: displayed on M13 phage coat protein fusion
notes: as for B1
B3: MTP6 synthetic peptide ACNSVHQHHCGGGS (peptide)
peptide: ACNSVHQHHCGGGS-NH2
modifications: disulfide 2-10 (inferred)
notes: lead peptide
B4: M13 phage displaying MTP5 (ACNSHRHGAC) (peptide)
peptide: ACNSHRHGAC
modifications: disulfide 2-10 (inferred); also: displayed on M13 phage coat protein fusion
notes: as for B1
B5: MTP6-N3 (azide-functionalized MTP6) (peptide)
peptide: ACNSVHQHHCGGGS-{PEG3′-azide}
modifications: disulfide 2-10 (inferred)
B6: M13 phage displaying MTP10 (ACRPKNNHSC) (peptide)
peptide: ACRPKNNHSC
modifications: disulfide 2-10 (inferred); also: displayed on M13 phage coat protein fusion
notes: as for B1
B7: M13 phage displaying MTP7 (ACYGKPEHHC) (peptide)
peptide: ACYGKPEHHC
modifications: disulfide 2-10 (inferred); also: displayed on M13 phage coat protein fusion
notes: as for B1
B8: M13 phage displaying MTP9 (ACPTGLHHAC) (peptide)
peptide: ACPTGLHHAC
modifications: disulfide 2-10 (inferred); also: displayed on M13 phage coat protein fusion
notes: as for B1
B9: M13 phage displaying MTP1 (TTFHHHK) (peptide)
peptide: TTFHHHK
notes: Tested as whole phage in the ELISA; not shown: rest of the M13 coat protein fusion of the Ph.D.-7 library (New England Biolabs); not described
B10: Scrambled peptide MDPHAHNGGGS (peptide)
peptide: MDPHAHNGGGS-NH2
notes: Synthetic control peptide with a GGGS spacer; also called scrambled control
B11: M13 phage displaying MTP8 (ACPHHPQKHC) (peptide)
peptide: ACPHHPQKHC
modifications: disulfide 2-10 (inferred); also: displayed on M13 phage coat protein fusion
notes: as for B1
B12: M13 phage displaying MTP3 (HNHMADP) (peptide)
peptide: HNHMADP
notes: as for B9
B13: M13 phage displaying MTP2 (ASSHIHH) (peptide)
peptide: ASSHIHH
notes: as for B9
B14: MTP3 synthetic peptide HNHMADPGGGS (peptide)
peptide: HNHMADPGGGS-NH2
B15: His-tagged MRP-14 (other)
chain: MTCKMSQLERNIETIINTFHQYSVKLGHPDTLNQGEFKELVRKDLQNFLKKENKNEKVIEHIMEDLDTNADKQLSFEEFIMLMARLTWASHEKMHEGDEGPGHHHKPGLGEGTP
notes: Commercial His-tagged protein, captured on a Ni-NTA chip for SPR and coated on plates for the phage ELISA; The position of the His tag is unknown; its order in the chain is arbitrary; not shown: His tag
B16: MTP2 synthetic peptide ASSHIHHGGGS (peptide)
peptide: ASSHIHHGGGS-NH2

Experiments:
bovine serum albumin = target: T1, bovine serum albumin (bovine, UniProt P02769 25-607); assay: phage ELISA on BSA-blocked wells, HRP anti-M13 antibody, ABTS, absorbance 410 nm
T1 construct: Background control in the phage ELISA; also called BSA
T1 sequence (P02769 25-607 limits assumed): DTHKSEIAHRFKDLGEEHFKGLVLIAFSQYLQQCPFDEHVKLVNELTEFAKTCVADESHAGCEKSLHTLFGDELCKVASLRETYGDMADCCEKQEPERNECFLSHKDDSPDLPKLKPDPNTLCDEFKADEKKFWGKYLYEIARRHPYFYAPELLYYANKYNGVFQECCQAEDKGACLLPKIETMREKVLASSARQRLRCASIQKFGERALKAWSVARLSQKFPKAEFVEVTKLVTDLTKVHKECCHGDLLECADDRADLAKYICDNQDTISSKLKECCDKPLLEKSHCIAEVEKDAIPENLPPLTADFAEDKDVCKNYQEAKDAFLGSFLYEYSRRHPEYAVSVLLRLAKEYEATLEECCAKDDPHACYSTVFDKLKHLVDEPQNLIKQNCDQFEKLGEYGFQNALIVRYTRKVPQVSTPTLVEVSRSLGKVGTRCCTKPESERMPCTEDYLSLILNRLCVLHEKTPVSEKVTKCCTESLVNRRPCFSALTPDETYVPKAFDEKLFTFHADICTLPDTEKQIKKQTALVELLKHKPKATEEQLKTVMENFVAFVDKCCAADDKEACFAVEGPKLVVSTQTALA

[1] = target: T2, MRP-8/14 heterodimer (untagged MRP-8 premixed 1:1 with His-tagged MRP-14) (UniProt P05109 1-93; P06702 1-114); assay: SPR, MRP-8/14 held on Ni-NTA chip by the His tag of MRP-14, saturation binding curve fit; MRP-8/14 heterodimer on the chip, not MRP-14 alone
T2 construct: Formed by mixing equal molar amounts for 3 hours with 0.1 mM CaCl2; only MRP-14 has a His tag; not shown: His tag
T2 sequence 1: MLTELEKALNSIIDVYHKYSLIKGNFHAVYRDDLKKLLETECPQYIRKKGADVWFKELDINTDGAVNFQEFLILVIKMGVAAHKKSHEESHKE
T2 sequence 2: B15 chain

His-tagged MRP-14 [2] = target: B15; assay: SPR, His-tagged MRP-14 on Ni-NTA chip, saturation binding curve fit
His-tagged MRP-14 [3] = target: B15; assay: SPR, His-tagged MRP-14 on Ni-NTA chip, peptide injected
[4] = target: T3, TMV-MTP6 (tobacco mosaic virus particle displaying MTP6) (tobacco mosaic virus, UniProt P69687 2-159, alkyne handle (3-ethynylaniline diazonium) on exterior tyrosine residues; about 20% of the coat proteins carry MTP6; C-terminal 3-monomer PEG spacer and azide, joined by CuAAC to an alkyne on …); assay: SPR, His-tagged MRP-14 on Ni-NTA chip, kinetic curve fit
T3 construct: Whole virus nanoparticle (with its RNA) with about 400 MTP6 peptides on 2130 coat proteins
T3 sequence (P69687 2-159): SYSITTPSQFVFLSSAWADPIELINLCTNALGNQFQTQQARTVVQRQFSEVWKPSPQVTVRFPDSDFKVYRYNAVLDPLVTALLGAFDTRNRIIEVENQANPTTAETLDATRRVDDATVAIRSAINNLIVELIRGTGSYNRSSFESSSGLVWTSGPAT

[5] = target: T3, TMV-MTP6 (tobacco mosaic virus particle …); assay: SPR, His-tagged MRP-14 on Ni-NTA chip, kinetic curve fit, concentration as MTP6 peptide

Binder	binding result (bovine serum albumin)	other results
B1	no binding (tested: 2.5E+11 pfu/mL)	
B2	no binding (tested: 2.5E+11 pfu/mL)	
B3		Kd [1]: 57.6 µM; Kd (His-tagged MRP-14 [2]): 39.6 µM
B4	no binding (tested: 2.5E+11 pfu/mL)	
B5		Kd (His-tagged MRP-14 [2]): 55.7 µM
B6	no binding (tested: 2.5E+11 pfu/mL)	
B7	no binding (tested: 2.5E+11 pfu/mL)	
B8	no binding (tested: 2.5E+11 pfu/mL)	
B9	no binding (tested: 2.5E+11 pfu/mL)	
B10		binding result (His-tagged MRP-14 [3]): no binding (tested: 6.25 µM to 100 µM)
B11	no binding (tested: 2.5E+11 pfu/mL)	
B12	no binding (tested: 2.5E+11 pfu/mL)	
B13	no binding (tested: 2.5E+11 pfu/mL)	
B14		Kd (His-tagged MRP-14 [2]): 117 µM
B15		koff [4]: 0.000686 s⁻¹; kon [4]: 910 M⁻¹ s⁻¹; Kd [5]: 0.754 µM
B16		Kd (His-tagged MRP-14 [2]): 77.6 µM
